Assay: yeast display, Sf9 membrane polyspecificity reagent, FACS + sequencing; frameworks hold sequencing errors
Summary of the method: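 Galactose induction of a Saccharomyces cerevisiae BJ5465 synthetic nanobody display library ran 36–48 hours. The cells were then stained for 1 hour at 4 °C with 10% biotinylated, detergent-solubilized Sf9 membrane reagent, pulled down on streptavidin microbeads and FACS-sorted into low and high (top ~1%) gates on expression and reagent-binding fluorescence. Labels for polyreactivity follow the gate of origin.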

Q: Which “polyreactivity (PSR sort gate)” value does the source give for “QVQLVESGGGLVQAGGSLRLSCAASGFTFVYYAMGWYRQAPGKERELVAAISRRGGNTNYADSVKGRFTISRDNEKNTVYLQMNSLKTEDTAVYYCNARLTGDRYYYYPMDYWGQGTQVTVST” here?
A: high polyreactivity

Q: Which “polyreactivity (PSR sort gate)” value does the source give for “QVQLVESGGGLVQAGGSLRLSCAASGSTFSYYVMGWYRQAPGKERELVAAISGSGGSTYYSDSVKGRFTISRDNAKNTVYLQMNSLKPEDTAVYYCAANDGSEYDYWGQGTQVTVSS” here?
A: high polyreactivity

Q: Which “polyreactivity (PSR sort gate)” value does the source give for “QVQLVESRGCLVQAGGSHRLSCAASGSISDVNPMGWYRQARGNERELFAAMTSRRGGTNYADSVKGRFTISRDYAKNTVYLQMNSLNPEDTAVYYCAVYVSTKASKQGYGPGDYWGQGTQVTVSS” here?
A: low polyreactivity

Q: With “QVHLVESGGGLVQAGGSLRLSCAASGRTFATYALGWYRQAPGKERELVAAISSGGSTYYADSVKGRFTISRDNAKNTVYLQMNSLKPEDTAVYYCAAARKYYGYNYWGQGTQVTVSS” as the sequence, how does the “polyreactivity (PSR sort gate)” value read?
A: high polyreactivity

Q: For “QVQLVESGGGLVQAGGSLRLSCAASGINFWNYAMGWYRQAPGKERELVAAISSSSGRTYYADSVKGRFTISRDNAKNTVYLQMNSLKPEDTAVYYCAARRSFARRFKNSMEYWGQGTQVTVSS”, which “polyreactivity (PSR sort gate)” value is on record?
A: high polyreactivity

Q: For “QVELVESGGGLVQAGGSLRLSCAASGFTFNGTAMGWYRQAPGKDRELVAAMSRGGSPSYADSVKGRFTISRDNAKKTVYLPMNSLKPEATAVYYCAAVSYGRFRRYEYWVQGTQVTVSS”, which “polyreactivity (PSR sort gate)” value is on record?
A: high polyreactivity

Q: With “QVQLVESGGGLVQAGGSLRLSCSATGNTLDVNARGWYRQAPGKERELVAAITSGGSTNYADSVKVRFTISRDNAKNTVYLQMNSLKPEDTAVYYCAATAALGRPEYYWGQGSQVTVSS” as the sequence, how does the “polyreactivity (PSR sort gate)” value read?
A: low polyreactivity

Q: With “QVQLVESGGGLVQAGGSLRLSCAASGFTFGYYAMGWYRQAPGKERELVDAISSSGGSTYYSDSVKGSFTISRDNAKNTVYLQMNSLKPEDTAVYYCNRGTTVRGPGYTNGRDITRYDYWGQGTQVTVSS” as the sequence, how does the “polyreactivity (PSR sort gate)” value read?
A: high polyreactivity

Q: For “QVQHVESGGGLVQAGGSLRLSCAASGRIIWWYAMRRYRQPPGKERELVAVIDDSVGITYFADSVKGRFTISRDNAKNTVYLQMNSLKPVDTAVNYCARNVNAQKVLGGFDSWGKGTQVTVSS”, which “polyreactivity (PSR sort gate)” value is on record?
A: low polyreactivity

Q: For “QVQLVESGGGLVQAGGSLRLSCAASGRTFRLYAMGWYRQAPGKERELVAAIRSGGSTNYADSVKGRFTISRDNAKNTVYLQMNSLKPEDTAVYYCAVDGYFFQGPYYYWGQGTQVTVSS”, which “polyreactivity (PSR sort gate)” value is on record?
A: low polyreactivity

Q: For “QVQLVESGGGLVQARGSLRLSCAASGFIFPSYAMGWYRQAPGKERELDAAITWNGGSTYYADSVKGRFTISRDNAKNTVYLQMNSLKPEDTAVYYCNKYYYYRDYGYWVQGTQVTVSS”, which “polyreactivity (PSR sort gate)” value is on record?
A: high polyreactivity

Q: With “QVQLVESGGVLVQAGGSLRLSCAASGFIFKYYAMGWYRQATGKERDLVAAISSSGGRKYYADSVKGRFTISRDNAKNTVYLHMNRLKPEDTAVYYCNKATFVTYYFLGYDYWGQGTQVTVSS” as the sequence, how does the “polyreactivity (PSR sort gate)” value read?
A: high polyreactivity

Q: With “QDQLVDSGGGLVQAGGSLSLSCAASGRNFGLNAKGWYRQAPGKEREFVAAIDWNDASTFYADSVKGRFTISRDNAENTVYLQMNSLKPVETAVYYCAAPWWVTTGTKFDYWGQGTQVTVSS” as the sequence, how does the “polyreactivity (PSR sort gate)” value read?
A: high polyreactivity

Q: For “QVQLVESGGGLVQAGGTLRLSCDASGSIFFWKAMGWYRQAPGKERELVAAISYTDGSTYYADSVKGRFTIPRDNAKNTVYLLMNSLKPEDTAVYYCAAAITPSYNGSEYDYWGQGTQVTVSS”, which “polyreactivity (PSR sort gate)” value is on record?
A: low polyreactivity

Q: For “QVQLVESGGGLVQAGGSLRLSCAASGSTFAANAMGWYRQAPGKERELVAAITSSGGSTYYADSVKGRFTISLDNEKNTVYLQMNSLKPEDTAVYYCNKDIERYVRIYDSWGQGTQVTVSS”, which “polyreactivity (PSR sort gate)” value is on record?
A: low polyreactivity

Q: Which “polyreactivity (PSR sort gate)” value does the source give for “QVQLVESGGGLVQAGGSLRLSCAASGFTFWQYAMGWYRQAPGKERELVAAITWDGGSTYYADSVKGRFTISRDNAKNTVYLQMNSLKPEDTAVYYCAKLFGGTYYEYDYWGQGTQVTVSS” here?
A: low polyreactivity

Q: With “KVQVVESGGGFVQAGGSLGLSCAASGRIFGVYAMGWYTQAPGKERELVAAINYSGTRTYYADSVKGRFTISRDNGKNTVYLQMNSLKPEDSAVYYCGARRGSYSVTEYWGQGTQVNVSS” as the sequence, how does the “polyreactivity (PSR sort gate)” value read?
A: high polyreactivity

Q: For “QVQLVESGGGIVQAGGSLRLSCAASGFIFGPYTMGWYRQAPGKERELVAAINNSGSTNYADSVKGRFTISRDNAKNTVYLQMNSLKPEDTAVYYCAAEPIIFVRYDYWGQGTHVTVSS”, which “polyreactivity (PSR sort gate)” value is on record?
A: low polyreactivity

Q: For “QVQLVESGGGLVQAGGSLRLSCAASGRIFKINAMGWYRQAPGKERELVATITRDGRTYYADSVKGRFTISRDNAKNTVYLQMNSLKPEDTAVYYCNVRRAFSGWRGYDYWGQGTQVTVSS”, which “polyreactivity (PSR sort gate)” value is on record?
A: high polyreactivity

Q: For “QVQLVESGGGLVQAGGSLRLSCAASGGIFDENAMGWYRQAPGKARELVAGITQRGASTNYADSVKGRFTISRDNAKNTVYLQMNSLKPEDTAVYYCDADVGTVISYEYWGQGTQVTVSS”, which “polyreactivity (PSR sort gate)” value is on record?
A: low polyreactivity

Q: With “QVQLVESGGGLVQAGGSLRLSCAASGSIFTLYAMGWYRQAPGKEREFVAGISFSTGRTYYADSVKGRFTISRDNAKNTVYLQMNSLKPEDTAVYYCAAYVSHYWYGVYRDGYWGQGTQVTVSS” as the sequence, how does the “polyreactivity (PSR sort gate)” value read?
A: low polyreactivity

Q: Which “polyreactivity (PSR sort gate)” value does the source give for “QVQLVESGGGLVQAGGSLRLSCAASGSTFYYYAMGWYSPAPGKERELVAAISRGGGSTNYADSVKGRFTISRDNAKNTVYLQMNSLKPEDTAVYYCATDYKYYGRPYNYWGQGTQVTVSS” here?
A: high polyreactivity

Q: With “QVQLVESGGGLVQAGGSLRLSCAASGFTFGTYDMGWYRQAPGKERELVAAISTSGGSTYYADSVKGRFTISRDNAKNTVYLQMNSLKPEDTAVYYCAARIVYYGGYGYWGQGTQVTVSS” as the sequence, how does the “polyreactivity (PSR sort gate)” value read?
A: high polyreactivity

Q: For “QVQLVESGGGLVQAGGSLRLSCAASGFIFYRYAMGWYRQAPGKERELVAAISYSGGSTYYADSVKGRFTISRDNAKNTVYLQMNSLKPEDTAVYYCAKGLTALGDYWGQGTQVTVSS”, which “polyreactivity (PSR sort gate)” value is on record?
A: high polyreactivity

Q: With “QAQLQEIGGSLVQAGGGLRLSCEASGYISVGSVMGWYRQAPSKERELVASIDQGANTNYADSVKGRFTISRDNEKNNVYLQMKSLKPEDTAVYYCATETTYILNDWGQGTQVTVSS” as the sequence, how does the “polyreactivity (PSR sort gate)” value read?
A: low polyreactivity

Q: Which “polyreactivity (PSR sort gate)” value does the source give for “QVQLVESGGGLLQAGGSLRLSCAASGRIFGDYGMGWYRQAPGKERELVAAITDRGGTTYYADSVKGRFTISRDNAKKTVYLQMNSMKPEDNAVYYCNARQSDIFDYDYWGQGTQVTVSS” here?
A: low polyreactivity

Q: With “QVQLVESGGGLVQAGGSLRLSCAASGYTFPLYAMGWYRQAPGKERELVADINIGGASTYYADSVKGRFTISRDNAKNTVYLQMYSLKPEDTAVYYCAKEYYDGYFPTFDYDYWGQGTQVTVSS” as the sequence, how does the “polyreactivity (PSR sort gate)” value read?
A: low polyreactivity

Q: For “QVQLVESGGGLVQAGGSLRLRCAASGYTLTPYTMGWYRQAPGKERELVAAINRSGGSTYYADSVKGRFTISRDNAKNTVYLQMNSLKPEDTAVYYCAAYGYYNFGYYYWGQGTQVTVSS”, which “polyreactivity (PSR sort gate)” value is on record?
A: high polyreactivity

Q: With “QVQLVESGGGLVQAGGSLRLSCAASGRIFGAYAMGWYRQAPGKEREWVAVINWRSGGTYYADSVKGRFTISRDNAKNTVYLQMNSLKPVDTAVYYCAADDYGFFSAGDFDYWGHGTQVTVSS” as the sequence, how does the “polyreactivity (PSR sort gate)” value read?
A: high polyreactivity

Q: For “QVQLVESGAGLVQAGGSLRLTCAASGSTFYRYAMGWYREAPGKERELVAAINTGGSTNYADSVKGRFTISRDNAKNTVYLQMYSMKPEDTAVYYCAARFQYYRKYDYWGQGTQVTVSS”, which “polyreactivity (PSR sort gate)” value is on record?
A: low polyreactivity

Q: With “QVQLVESGGGLVQAGGSLRLSCAASGRIFLYYAMGWYRQAPGKERELVAAITSSGGGTYYADSVKGRFTISRDNAKNTVYLQMNSLKPEDTAVYYCNKAGPYYGYPHYLFYYWGQGTQVTVSS” as the sequence, how does the “polyreactivity (PSR sort gate)” value read?
A: high polyreactivity

Q: For “QVQLVESGGGLVQAGGSLRLSCAASGSIFRGNAMGWYRQAPGKERELVAAITSRGTSTYYADSVKGRFTISRDNAKNTVYLQMNSLKREDTAVYYCAARGYYLYWGQGTQVTVSS”, which “polyreactivity (PSR sort gate)” value is on record?
A: high polyreactivity

Source: the nanobody polyreactivity screen of Harvey et al. (2022)
